In this test the target is Neutrophil elastase enzyme (Neutrophil Elastase Colorimetric Drug Discovery Kit, Enzo Life Sciences) (UniProt P08246). Briefly: cell-based or functional assay.
UniProt P08246, sequence (P08246 30-247 limits assumed): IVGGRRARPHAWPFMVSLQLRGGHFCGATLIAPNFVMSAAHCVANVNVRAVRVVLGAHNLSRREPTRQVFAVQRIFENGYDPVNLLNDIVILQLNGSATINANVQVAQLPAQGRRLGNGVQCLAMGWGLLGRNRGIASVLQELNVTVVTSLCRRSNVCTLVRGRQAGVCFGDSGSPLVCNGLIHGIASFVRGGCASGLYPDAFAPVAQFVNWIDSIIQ

“endogenous A1AT of wild type mice (from UniProt O89094 168-257)” yielded an Average % Inhibition (Percent inhibition of Neutrophil Elastase in purified serum samples) of 95.6%.

Values taken from patent publication US20260007772A1.
